Positions count from the first letter of the chain named. Names may count otherwise.
Key:
[1] = target: the molecule itself; assay: NMR solution structure; CARD9^2−142 dimer, 1 mM with 1:1 ZnCl2, 50 mM HEPES, 300 mM NaCl, 0.5 mM TCEP, pH 7.0, 37 °C; intermolecular NOEs from a mixed labelled/unlabelled sample, RDCs
[2] = target: the molecule itself; assay: negative-stain EM; CARD11^8−109 WT or mutants at 250 μM or 500 μM, 2 h at 25 °C, 50 mM HEPES, 50 mM NaCl, 0.5 mM TCEP, pH 7.0
[3] = target: the molecule itself; assay: absorbance at 350 nm + other: negative-stain EM; CARD9^2−97 polymerisation: 1:1 Zn2+-bound CARD, EDTA added at t = 0; 50 mM Tris, 150 mM NaCl, 0.5 mM TCEP, pH 7.0, 25 °C, shaking; NS-EM grids at 90 min
[4] = target: the molecule itself; assay: negative-stain EM; CARD9^2–152 constructs purified 1:1 with Zn2+, Zn2+ removed with a twofold excess of EDTA, incubated at the indicated concentration, time and temperature; 50 mM HEPES, 150 mM NaCl, 0.5 mM TCEP, pH 7.0; step: dimers to filaments

B1: CARD9^2−142 (domain or fragment, human, UniProt Q9H257 2-142, looked up)
chain: SDYENDDECWSVLEGFRVTLTSVIDPSRITPYLRQCKVLNPDDEEQVLSDPNLVIRKRKVGVLLDILQRTGHKGYVAFLESLELYYPQLYKKVTGKEPARVFSMIIDASGESGLTQLLMTEVMKLQKKVQDLTALLSSKDD
notes: Isotope-labelled samples with 1:1 ZnCl2 for NMR; not shown: 6xHis, N-terminal, cleaved
binding result [1]: binds

B2: CARD11^8−109 (CARD11 CARD), wild type (domain or fragment, human, UniProt Q9BXL7 8-109, looked up)
chain: MDDYMETLKDEEDALWENVECNRHMLSRYINPAKLTPYLRQCKVIDEQDEDEVLNAPMLPSKINRAGRLLDILHTKGQRGYVVFLESLEFYYPELYKLVTGK
notes: CARD11 (CARMA1), human, residues 8-109 (CARD); also called WT CARD11 CARD; source: E. coli BL21(DE3), purified (Ni-NTA, TEV, Superdex 75); not shown: 6xHis, N-terminal, cleaved
binding result [2]: binds

B3: CARD9^2−97 (CARD9 CARD alone), wild type (domain or fragment, human, UniProt Q9H257 2-97, looked up)
chain: SDYENDDECWSVLEGFRVTLTSVIDPSRITPYLRQCKVLNPDDEEQVLSDPNLVIRKRKVGVLLDILQRTGHKGYVAFLESLELYYPQLYKKVTGK
notes: CARD9, human, residues 2-97 (CARD); polymerisation started by EDTA; also called CARD9^2−97/WT; source: E. coli BL21(DE3), purified (Ni-NTA, TEV, Superdex 75); not shown: 6xHis, N-terminal, cleaved
binding result [3]: binds

B4: CARD9^2−97/D43R/K58D (domain or fragment, human, UniProt Q9H257 2-97, looked up)
chain: B3 chain with D42R, K57D
notes: CARD9, human, residues 2-97 (CARD); also called charge-swap mutant of the Type III interface; source: E. coli BL21(DE3), purified (Ni-NTA, TEV, Superdex 75; insoluble mutants under denaturing conditions); not shown: 6xHis, N-terminal, cleaved
binding result [3]: binds

B5: CARD9^2−152/L115I (domain or fragment, human, UniProt Q9H257 2-152, looked up)
chain: SDYENDDECWSVLEGFRVTLTSVIDPSRITPYLRQCKVLNPDDEEQVLSDPNLVIRKRKVGVLLDILQRTGHKGYVAFLESLELYYPQLYKKVTGKEPARVFSMIIDASGESGITQLLMTEVMKLQKKVQDLTALLSSKDDFIKELRVKDS
notes: not shown: 6xHis, N-terminal, cleaved
binding result [4]: binds
